Results published in PMC5104516, “TRIM28 regulates the nuclear accumulation and toxicity of both alpha-synuclein and tau” (eLife, 2016).

How the values were obtained:
[1] = molecular target: α-Syn:nYFP (UniProt P37840 1-140); assay: split reporter (BiFC, NanoBiT); split-YFP; stable cell lines with α-Syn or tau fused to the N-terminal portion of YFP (bait), transfected with 250 ng prey plasmid with the C-terminal portion of YFP; fluorescence by flow cytometry at 48 hr and microscopy up to 72 hr; details: partners not purified
[2] = molecular target: T1, tau:nYFP (UniProt P10636-8 1-441); assay: as above; details: partners not purified
T1 construct: microtubule associated protein tau; Plasmids and their construction are in Supplementary file 2; also called nYFP-tau; tau fused to an N-terminal moiety of YFP
T1 sequence (P10636 other isoform, or with tags, fused parts or gaps): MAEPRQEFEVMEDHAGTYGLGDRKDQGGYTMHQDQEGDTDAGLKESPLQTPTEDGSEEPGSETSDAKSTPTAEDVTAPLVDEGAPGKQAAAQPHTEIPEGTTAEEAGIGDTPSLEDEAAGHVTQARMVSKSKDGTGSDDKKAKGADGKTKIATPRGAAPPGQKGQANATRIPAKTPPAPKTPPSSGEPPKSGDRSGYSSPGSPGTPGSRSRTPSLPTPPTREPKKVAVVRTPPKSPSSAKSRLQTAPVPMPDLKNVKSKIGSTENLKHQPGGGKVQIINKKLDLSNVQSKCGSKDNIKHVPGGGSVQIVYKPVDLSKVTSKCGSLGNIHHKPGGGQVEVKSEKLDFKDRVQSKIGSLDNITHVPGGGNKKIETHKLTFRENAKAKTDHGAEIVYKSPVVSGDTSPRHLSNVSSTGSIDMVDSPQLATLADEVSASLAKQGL

fold lower BiFC signal than with tau as prey [1]: ~8 fold
fold lower BiFC signal than with tau as prey [2]: ~8 fold
B1: TRIM28:cYFP (natural protein, human, UniProt Q13263 1-835, looked up)
chain: MAASAAAASAAAASAASGSPGPGEGSAGGEKRSTAPSAAASASASAAASSPAGGGAEALELLEHCGVCRERLRPEREPRLLPCLHSACSACLGPAAPAAANSSGDGGAAGDGTVVDCPVCKQQCFSKDIVENYFMRDSGSKAATDAQDANQCCTSCEDNAPATSYCVECSEPLCETCVEAHQRVKYTKDHTVRSTGPAKSRDGERTVYCNVHKHEPLVLFCESCDTLTCRDCQLNAHKDHQYQFLEDAVRNQRKLLASLVKRLGDKHATLQKSTKEVRSSIRQVSDVQKRVQVDVKMAILQIMKELNKRGRVLVNDAQKVTEGQQERLERQHWTMTKIQKHQEHILRFASWALESDNNTALLLSKKLIYFQLHRALKMIVDPVEPHGEMKFQWDLNAWTKSAEAFGKIVAERPGTNSTGPAPMAPPRAPGPLSKQGSGSSQPMEVQEGYGFGSGDDPYSSAEPHVSGVKRSRSGEGEVSGLMRKVPRVSLERLDLDLTADSQPPVFKVFPGSTTEDYNLIVIERGAAAAATGQPGTAPAGTPGAPPLAGMAIVKEEETEAAIGAPPTATEGPETKPVLMALAEGPGAEGPRLASPSGSTSSGLEVVAPEGTSAPGGGPGTLDDSATICRVCQKPGDLVMCNQCEFCFHLDCHLPALQDVPGEEWSCSLCHVLPDLKEEDGSLSLDGADSTGVVAKLSPANQRKCERVLLALFCHEPCRPLHQLATDSTFSLDQPGGTLDLTLIRARLQEKLSPPYSSPQEFAQDVGRMFKQFNKLTEDKADVQSIIGLQRFFETRMNEAFGDTKFSAVLVEPPPMSLPGAGLSSQELSGGPGDGP
notes: Tripartite motif-containing 28 (TRIM28); Plasmids and their construction are in Supplementary file 2; also called TRIM28 fused to a C-terminal moiety of YFP; Prey
